Tests used:
[1] = SPR (Biocore T100) binding affinity to sLeA; details: Example 3, Table 7, mean
Protocol: (§1) An in vitro evaluation of the binding affinity to sLeA and sLeC of the humanized antibodies from Example 1 were performed using a Biocore T100 SPR biosensor using a CM7 sensor chip with PBS-p (0.005% Tween-20) running buffer at 25 degrees Celsius. The antibodies were couples to ˜30,000 RU at 50 ug/ml in 10 mM NaAcetate pH 5.0 over an NHS/EDC activated surface. A reference surface was activated and blocked to serve as a control. Carbohydrate samples (sLeA, sLeC and sialyl Lewis X (all from Dextra Labs)) were dissolved in PBS-p running buffer up to a stock concentration of 10 mM. Each was then prepared in a 2-fold dilution series up to 300 μM and each concentration series was tested over the antibody surfaces. Response data were processed by subtracting the responses from the reference surfaces as well as a buffer injection. Binding constants were determined at 25 degrees Celsius.
(§2) Seven of the humanized antibody clones from Example 1 were tested for binding affinity to sLeA, sLeC and […]. Methods used were similar to those described in Example 2 above, except with sLeX only at one concentration of 300 μM.

[2] = SPR (Biocore T100) binding affinity to sLeC; details: Example 3, Table 7, mean
Protocol: as §1, §2

Molecule	Kd [1] [µM]	Kd [2] [µM]
Clone 4770: Humanized IgG1 antibody, heavy chain variable region HvCh3 (SEQ ID NO: 3), light chain LiCh2 (SEQ ID NO: 6) (antibody, V domains shown) VH: EVQLVESGGGLVQPGGSLRLSCAASGFTFSTNAMSWVRQAPGKGLEWVARLRPKSDNYATYYADSVKGRFTISRDDSKNTLYLQMNSLRAEDTAVYYCVTGTGFWGQGTTLTVSS VL: DIVMTQSPDSLAVSLGERVTMNCKSSQSLLNSGNQKNYLTWYQQKPGQPPKLLIYWTSTRESGVPDRFSGSGSGTDFTLTISSVQAEDVAVYYCQNDYTSPYTFGQGTKLEIK	69.1	93.2
Clone 4766: Humanized IgG1 antibody, heavy chain variable region HvCh2 (SEQ ID NO: 2), light chain LiCh2 (SEQ ID NO: 6) (antibody, V domains shown) VH: EVQLVESGGGLVQPGGSLRLSCAASGFTFSTNAMSWVRQAPGKGLEWVARLRPKSDNYATYYADSVKGRFTISRDNSKNTLYLQMNSLRAEDTAVYYCVTGTGFWGQGTTLTVSS VL: DIVMTQSPDSLAVSLGERVTMNCKSSQSLLNSGNQKNYLTWYQQKPGQPPKLLIYWTSTRESGVPDRFSGSGSGTDFTLTISSVQAEDVAVYYCQNDYTSPYTFGQGTKLEIK	621	538
Clone 4768: Humanized IgG1 antibody, heavy chain variable region HvCh2 (SEQ ID NO: 2), light chain LiCh4 (SEQ ID NO: 8) (antibody, V domains shown) VH: EVQLVESGGGLVQPGGSLRLSCAASGFTFSTNAMSWVRQAPGKGLEWVARLRPKSDNYATYYADSVKGRFTISRDNSKNTLYLQMNSLRAEDTAVYYCVTGTGFWGQGTTLTVSS VL: DIVMTQSPDSLAVSLGERVTMNCKSSQSLLNSGNQKNYLTWYQQKPGQPPKLLFYWTSTRESGVPDRFSGSGSGTDFTLTISSVQAEDVAVYYCQNDYTSPYTFGQGTKLEIK	552	460
Clone 4765: Humanized IgG1 antibody, heavy chain variable region HvCh2 (SEQ ID NO: 2), light chain LiCh1 (SEQ ID NO: 5) (antibody, V domains shown) VH: EVQLVESGGGLVQPGGSLRLSCAASGFTFSTNAMSWVRQAPGKGLEWVARLRPKSDNYATYYADSVKGRFTISRDNSKNTLYLQMNSLRAEDTAVYYCVTGTGFWGQGTTLTVSS VL: DIVMTQSPDSLAVSLGERATINCKSSQSLLNSGNQKNYLTWYQQKPGQPPKLLIYWTSTRESGVPDRFSGSGSGTDFTLTISSLQAEDVAVYYCQNDYTSPYTFGQGTKLEIK	732	306
Clone 4772: Humanized IgG1 antibody, heavy chain variable region HvCh3 (SEQ ID NO: 3), light chain LiCh4 (SEQ ID NO: 8) (antibody, V domains shown) VH: EVQLVESGGGLVQPGGSLRLSCAASGFTFSTNAMSWVRQAPGKGLEWVARLRPKSDNYATYYADSVKGRFTISRDDSKNTLYLQMNSLRAEDTAVYYCVTGTGFWGQGTTLTVSS VL: DIVMTQSPDSLAVSLGERVTMNCKSSQSLLNSGNQKNYLTWYQQKPGQPPKLLFYWTSTRESGVPDRFSGSGSGTDFTLTISSVQAEDVAVYYCQNDYTSPYTFGQGTKLEIK	48.3	77.1
Clone 4769: Humanized IgG1 antibody, heavy chain variable region HvCh3 (SEQ ID NO: 3), light chain LiCh1 (SEQ ID NO: 5) (antibody, V domains shown) VH: EVQLVESGGGLVQPGGSLRLSCAASGFTFSTNAMSWVRQAPGKGLEWVARLRPKSDNYATYYADSVKGRFTISRDDSKNTLYLQMNSLRAEDTAVYYCVTGTGFWGQGTTLTVSS VL: DIVMTQSPDSLAVSLGERATINCKSSQSLLNSGNQKNYLTWYQQKPGQPPKLLIYWTSTRESGVPDRFSGSGSGTDFTLTISSLQAEDVAVYYCQNDYTSPYTFGQGTKLEIK	81.3	104
Clone 4771: Humanized IgG1 antibody, heavy chain variable region HvCh3 (SEQ ID NO: 3), light chain LiCh3 (SEQ ID NO: 7) (antibody, V domains shown) VH: EVQLVESGGGLVQPGGSLRLSCAASGFTFSTNAMSWVRQAPGKGLEWVARLRPKSDNYATYYADSVKGRFTISRDDSKNTLYLQMNSLRAEDTAVYYCVTGTGFWGQGTTLTVSS VL: DIVMTQSPDSLAVSLGERATINCKSSQSLLNSGNQKNYLTWYQQKPGQPPKLLFYWTSTRESGVPDRFSGSGSGTDFTLTISSLQAEDVAVYYCQNDYTSPYTFGQGTKLEIK	59.2	85.4

— patent US20260174847A1, “METHODS OF TREATING DIGESTIVE DISEASES AND COMPOSITIONS THEREOF” (PTM Therapeutics, Inc., priority 2023, published 2026)
